Measurements as given in article PMC10397247.

Legend:
[1] = target: T1, P1A-bP; assay: two-hybrid library CCNG1;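 note: natural log of median RNA to DNA barcode read ratio; higher means stronger binding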
T1 chain: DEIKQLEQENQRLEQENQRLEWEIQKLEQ

[2] = target: T2, P2A-bP; assay: two-hybrid library CCNG1;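 note: natural log of median RNA to DNA barcode read ratio; higher means stronger binding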
T2 chain: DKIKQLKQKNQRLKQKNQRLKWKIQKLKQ

[3] = target: T3, P3A-bP; assay: two-hybrid library CCNG1;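 note: natural log of median RNA to DNA barcode read ratio; higher means stronger binding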
T3 chain: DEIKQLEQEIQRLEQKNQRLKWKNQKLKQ

[4] = target: T4, P4A-bP; assay: two-hybrid library CCNG1;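 note: natural log of median RNA to DNA barcode read ratio; higher means stronger binding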
T4 chain: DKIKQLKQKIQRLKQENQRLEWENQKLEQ

[5] = target: T5, P5A-bP; assay: two-hybrid library CCNG1;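 note: natural log of median RNA to DNA barcode read ratio; higher means stronger binding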
T5 chain: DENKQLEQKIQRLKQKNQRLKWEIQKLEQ

[6] = target: T6, P6A-bP; assay: two-hybrid library CCNG1;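 note: natural log of median RNA to DNA barcode read ratio; higher means stronger binding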
T6 chain: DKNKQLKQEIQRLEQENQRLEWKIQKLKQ

[7] = target: T7, P7A-bP; assay: two-hybrid library CCNG1
T7 chain: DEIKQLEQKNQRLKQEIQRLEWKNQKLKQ

[8] = target: T8, P8A-bP; assay: two-hybrid library CCNG1
T8 chain: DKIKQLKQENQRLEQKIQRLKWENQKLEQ

[9] = target: T9, P9A-bP; assay: two-hybrid library CCNG1
T9 chain: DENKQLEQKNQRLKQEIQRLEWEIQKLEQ

[10] = target: T10, 4H2447-AA; assay: two-hybrid library CCmax
T10 chain: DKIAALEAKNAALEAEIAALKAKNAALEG

[11] = target: T11, 4H2458-AA; assay: two-hybrid library CCmax; settings: mean of both orientations
T11 chain: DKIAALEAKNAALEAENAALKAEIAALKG

[12] = target: T12, 4H3330-AA; assay: two-hybrid library CCmax; settings: mean of both orientations
T12 chain: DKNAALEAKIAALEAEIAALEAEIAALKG

[13] = target: T13, 4H716-AA; assay: two-hybrid library CCmax; settings: mean of both orientations
T13 chain: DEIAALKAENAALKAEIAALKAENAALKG

[14] = target: T14, 4H733-AA; assay: two-hybrid library CCmax; settings: mean of both orientations
T14 chain: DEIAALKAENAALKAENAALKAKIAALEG

[15] = target: T15, 4H807-AA; assay: two-hybrid library CCmax; settings: mean of both orientations
T15 chain: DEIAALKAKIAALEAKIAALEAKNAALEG

[16] = target: T16, APC1015-AA; assay: two-hybrid library CCmax; settings: mean of both orientations
T16 chain: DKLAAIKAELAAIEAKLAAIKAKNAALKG

[17] = target: T17, APC1434-AA; assay: two-hybrid library CCmax; settings: mean of both orientations
T17 chain: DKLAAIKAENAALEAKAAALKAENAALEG

[18] = target: T18, APC2237-AA; assay: two-hybrid library CCmax; settings: mean of both orientations
T18 chain: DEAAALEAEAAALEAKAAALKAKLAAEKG

[19] = target: T19, APC232-AA; assay: two-hybrid library CCmax; settings: mean of both orientations
T19 chain: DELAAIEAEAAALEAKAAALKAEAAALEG

[20] = target: T20, APC2405-AA; assay: two-hybrid library CCmax; settings: mean of both orientations
T20 chain: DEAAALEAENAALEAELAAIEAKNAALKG

[21] = target: T21, APC3645-AA; assay: two-hybrid library CCmax; settings: mean of both orientations
T21 chain: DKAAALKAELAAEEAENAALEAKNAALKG

[22] = target: T22, APC4011-AA; assay: two-hybrid library CCmax; settings: mean of both orientations
T22 chain: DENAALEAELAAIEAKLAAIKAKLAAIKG

[23] = target: T23, APC4264-AA; assay: two-hybrid library CCmax; settings: mean of both orientations
T23 chain: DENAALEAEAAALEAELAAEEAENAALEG

[24] = target: T24, APC4436-AA; assay: two-hybrid library CCmax; settings: mean of both orientations
T24 chain: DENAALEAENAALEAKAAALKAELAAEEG

[25] = target: T25, APC5383-AA; assay: two-hybrid library CCmax; settings: mean of both orientations
T25 chain: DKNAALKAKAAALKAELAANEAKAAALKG

[26] = target: T26, APC6108-AA; assay: two-hybrid library CCmax; settings: mean of both orientations
T26 chain: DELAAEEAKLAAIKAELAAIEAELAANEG

[27] = target: T27, APC7099-AA; assay: two-hybrid library CCmax; settings: mean of both orientations
T27 chain: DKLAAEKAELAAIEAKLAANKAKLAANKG

[28] = target: T28, APC8191-AA; assay: two-hybrid library CCmax; settings: mean of both orientations
T28 chain: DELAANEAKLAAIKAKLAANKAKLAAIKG

[29] = target: T29, APC8910-AA; assay: two-hybrid library CCmax; settings: mean of both orientations
T29 chain: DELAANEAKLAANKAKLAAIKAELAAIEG

[30] = target: T30, APC9096-AA; assay: two-hybrid library CCmax; settings: mean of both orientations
T30 chain: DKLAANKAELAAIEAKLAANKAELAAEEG

[31] = target: T31, APC9319-AA; assay: two-hybrid library CCmax; settings: mean of both orientations
T31 chain: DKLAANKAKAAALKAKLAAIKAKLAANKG

[32] = target: T32, 4H1373-bA; assay: two-hybrid library CCNG1
T32 chain: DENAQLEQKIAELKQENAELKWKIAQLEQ

[33] = target: T33, 4H1449-bA; assay: two-hybrid library CCNG1
T33 chain: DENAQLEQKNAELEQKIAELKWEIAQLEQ

[34] = target: T34, 4H1544-bA; assay: two-hybrid library CCNG1
T34 chain: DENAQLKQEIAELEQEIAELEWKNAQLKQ

[35] = target: T35, 4H1710-bA; assay: two-hybrid library CCNG1
T35 chain: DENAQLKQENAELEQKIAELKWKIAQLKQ

[36] = target: T36, 4H1899-bA; assay: two-hybrid library CCNG1
T36 chain: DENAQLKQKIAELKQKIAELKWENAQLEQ

[37] = target: T37, 4H1985-bA; assay: two-hybrid library CCNG1
T37 chain: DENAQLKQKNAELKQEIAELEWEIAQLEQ

[38] = target: T38, 4H2691-bA; assay: two-hybrid library CCNG1
T38 chain: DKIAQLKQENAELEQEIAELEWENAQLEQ

[39] = target: T39, 4H3162-bA; assay: two-hybrid library CCNG1
T39 chain: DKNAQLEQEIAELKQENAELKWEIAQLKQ

[40] = target: T40, 4H3175-bA; assay: two-hybrid library CCNG1
T40 chain: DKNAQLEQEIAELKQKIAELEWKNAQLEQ

[41] = target: T41, 4H3277-bA; assay: two-hybrid library CCNG1
T41 chain: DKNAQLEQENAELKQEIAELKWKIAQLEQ

[42] = target: T42, 4H3298-bA; assay: two-hybrid library CCNG1
T42 chain: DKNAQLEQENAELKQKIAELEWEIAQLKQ

[43] = target: T43, 4H3462-bA; assay: two-hybrid library CCNG1
T43 chain: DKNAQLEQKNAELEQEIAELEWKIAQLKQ

[44] = target: T44, 4H3497-bA; assay: two-hybrid library CCNG1
T44 chain: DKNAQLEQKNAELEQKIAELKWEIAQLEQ

[45] = target: T45, 4H3613-bA; assay: two-hybrid library CCNG1
T45 chain: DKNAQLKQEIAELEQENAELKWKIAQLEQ

[46] = target: T46, 4H3628-bA; assay: two-hybrid library CCNG1
T46 chain: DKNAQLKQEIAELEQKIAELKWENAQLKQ

[47] = target: T47, 4H3817-bA; assay: two-hybrid library CCNG1
T47 chain: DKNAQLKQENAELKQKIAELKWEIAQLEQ

[48] = target: T48, 4H3858-bA; assay: two-hybrid library CCNG1
T48 chain: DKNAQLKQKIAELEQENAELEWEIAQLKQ

[49] = target: T49, 4H3926-bA; assay: two-hybrid library CCNG1
T49 chain: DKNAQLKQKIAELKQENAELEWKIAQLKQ

[50] = target: T50, 4H3974-bA; assay: two-hybrid library CCNG1
T50 chain: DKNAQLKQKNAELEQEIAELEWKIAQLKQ

[51] = target: T51, 4H570-bA; assay: two-hybrid library CCNG1
T51 chain: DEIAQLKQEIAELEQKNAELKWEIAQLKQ

[52] = target: T52, 4H591-bA; assay: two-hybrid library CCNG1
T52 chain: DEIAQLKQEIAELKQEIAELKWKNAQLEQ

[53] = target: T53, 4H619-bN; assay: two-hybrid library CCNG1
T53 chain: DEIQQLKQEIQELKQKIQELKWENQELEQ

[54] = target: T54, 4H626-bA; assay: two-hybrid library CCNG1
T54 chain: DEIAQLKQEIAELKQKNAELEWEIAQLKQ

[55] = target: T55, 4H850-bA; assay: two-hybrid library CCNG1
T55 chain: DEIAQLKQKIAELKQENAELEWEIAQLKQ

[56] = target: T56, 4H906-bA; assay: two-hybrid library CCNG1
T56 chain: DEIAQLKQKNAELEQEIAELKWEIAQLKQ

[57] = target: T57, 4H2859-bN; assay: two-hybrid library CCNG1
T57 chain: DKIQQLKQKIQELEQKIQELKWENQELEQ

[58] = target: T58, 4H2931-bN; assay: two-hybrid library CCNG1
T58 chain: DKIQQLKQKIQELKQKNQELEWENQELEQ

[59] = target: T59, 4H3041-bN; assay: two-hybrid library CCNG1
T59 chain: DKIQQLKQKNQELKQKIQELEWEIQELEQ

[60] = target: T60, 4H3297-bN; assay: two-hybrid library CCNG1
T60 chain: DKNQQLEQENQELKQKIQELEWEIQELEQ

[61] = target: T61, 4H3364-bN; assay: two-hybrid library CCNG1
T61 chain: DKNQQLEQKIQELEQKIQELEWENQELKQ

[62] = target: T62, 4H3381-bN; assay: two-hybrid library CCNG1
T62 chain: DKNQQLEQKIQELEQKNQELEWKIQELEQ

[63] = target: T63, 4H349-bN; assay: two-hybrid library CCNG1
T63 chain: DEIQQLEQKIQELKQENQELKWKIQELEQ

[64] = target: T64, 4H56-bN; assay: two-hybrid library CCNG1
T64 chain: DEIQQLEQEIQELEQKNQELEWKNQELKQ

[65] = target: T65, 4H730-bN; assay: two-hybrid library CCNG1
T65 chain: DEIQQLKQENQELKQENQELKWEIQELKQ

[66] = target: T66, 4H796-bN; assay: two-hybrid library CCNG1
T66 chain: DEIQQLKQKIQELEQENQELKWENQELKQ

[67] = target: T67, 4H932-bN; assay: two-hybrid library CCNG1
T67 chain: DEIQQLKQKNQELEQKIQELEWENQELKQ

[68] = target: T68, 4H949-bN; assay: two-hybrid library CCNG1
T68 chain: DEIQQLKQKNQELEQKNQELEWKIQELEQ

[69] = target: T69, O11-bH; assay: two-hybrid library CCNG1
T69 chain: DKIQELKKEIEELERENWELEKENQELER

## DEIKQLEQENQRLEQENQRLEWEIQKLEQ [P1A-bP]
[1]
  interaction score: -1.8
[2]
  interaction score: 1.97
[3]
  interaction score: -0.629
[4]
  interaction score: -1.23
[5]
  interaction score: -0.589
[6]
  interaction score: -0.151
[7]
  interaction score: -0.745
[8]
  interaction score: -0.0351
[9]
  interaction score: -2.64

## DKIAALEAKNAALEAEIAALKAKNAALEG [4H2447-AA]
[10]
  interaction score: 1.72
[11]
  interaction score: -1.42
[12]
  interaction score: -0.798
[13]
  interaction score: -1.36
[14]
  interaction score: -1.83
[15]
  interaction score: -1.69
[16]
  interaction score: -2.05
[17]
  interaction score: -1.56
[18]
  interaction score: -1.38
[19]
  interaction score: -1.82
[20]
  interaction score: -1.12
[21]
  interaction score: -1.7
[22]
  interaction score: -0.716
[23]
  interaction score: -1.6
[24]
  interaction score: -1.79
[25]
  interaction score: -1.8
[26]
  interaction score: -1.28
[27]
  interaction score: -1.5
[28]
  interaction score: -1.38
[29]
  interaction score: -1.68
[30]
  interaction score: -1.78
[31]
  interaction score: -1.75

## DENAQLEQKIAELKQENAELKWKIAQLEQ [4H1373-bA]
[32]
  interaction score: 0.464
[33]
  interaction score: -1.22
[34]
  interaction score: -0.914
[35]
  interaction score: -0.946
[36]
  interaction score: -1.03
[37]
  interaction score: -0.533
[38]
  interaction score: 0.119
[39]
  interaction score: -0.314
[40]
  interaction score: -0.89
[41]
  interaction score: -0.594
[42]
  interaction score: -0.776
[43]
  interaction score: -0.757
[44]
  interaction score: -1.17
[45]
  interaction score: 1.71
[46]
  interaction score: -0.805
[47]
  interaction score: -0.693
[48]
  interaction score: 1.36
[49]
  interaction score: 2.27
[50]
  interaction score: -0.681
[51]
  interaction score: -0.799
[52]
  interaction score: -0.592
[53]
  interaction score: -0.473
[54]
  interaction score: -1.61
[55]
  interaction score: -0.104
[56]
  interaction score: -1.26

## DKIQQLKQKIQELEQKIQELKWENQELEQ [4H2859-bN]
[57]
  interaction score: 0.927
[58]
  interaction score: -0.613
[59]
  interaction score: 0.995
[60]
  interaction score: 0.359
[61]
  interaction score: -0.713
[62]
  interaction score: -1.35
[63]
  interaction score: -1.06
[64]
  interaction score: 0.857
[65]
  interaction score: -1.23
[66]
  interaction score: -1.23
[67]
  interaction score: -1.18
[68]
  interaction score: -2.31
[69]
  interaction score: 0.17
